Assay results published in the supplement of paper PMC12042874.
± gives the uncertainty stated by the source.

Assay: amyloid nucleation score (Sup35N fusion, yeast selection) (log enrichment); library NNK2; higher = more nucleation; inactive = no reads after selection
Procedure, shortened: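 Nucleation score is defined as the DiMSum log enrichment of output over input reads, with centring on the mode score of non-aggregating sequences. A minimum of 100 input reads was required for each sequence. Reads came from Illumina sequencing of plasmid inserts from psi-negative yeast expressing Sup35N fused to peptides of 20 random codons, induced with 100 μM copper sulfate for 24 hours and grown 7 days at 30°C on medium lacking adenine and uracil.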

| Substance | amyloid nucleation score |
| --- | --- |
| GVTPYCKRHV | -1.14 ± 0.78 |
| GVVFFFGKDNGRDIMSGTRY | inactive |
| GVVLNLDTWLVDEVPDGVRM | 0.057 ± 0.76 |
| GVVNSRYALFNCRLEFKDVL | 9.742 ± 0.071 |
| GVYNITTLLPRCVVNVVL | 7.482 ± 0.028 |
| GWESGALWVANFLSVRQA | 0.19 ± 0.56 |
| GWLYVYDSGMFGGWNIGVDG | -0.131 ± 0.36 |
| GWMQIGSVYLFSE | 7.741 ± 0.048 |
| GWTKLFGVHDSGIGCPNGVL | inactive |
| GWWNHGSSMGYFERVSSTFW | inactive |
| GYAADLWWVLLFYERLVSGD | 0.026 ± 0.49 |
| GYKDANQNM | inactive |
| GYKHLIRVQWSKTYSSTGFC | -0.356 ± 1.1 |
| GYSSGFQVAVNLRSTLRQSY | 3.03 ± 0.068 |
| GYVWDVIGKWGTLRILRVSK | -0.498 ± 1.1 |
| HAACCASNLLWGRFFWSCAD | 2.74 ± 0.084 |
| HCAEHQPASGVLVTGYWDLG | 0.444 ± 0.54 |
| HCGVLVDISFEHALIFR | -1.99 ± 0.78 |
| HCLFSGYYLKLN | inactive |
| HCTWSQPPSS | -0.001 ± 0.5 |
| HDGCGPCSHWTGSQFTFRSS | 2.2 ± 0.11 |
| HDINRMG | 0.391 ± 0.54 |
| HDRIFSIKSWWCRSIWEVGV | -1.79 ± 0.78 |
| HDRVIRQN | 0.084 ± 0.26 |
| HDYFTYT | 4.83 ± 0.059 |

| Substance | amyloid nucleation score |
| --- | --- |
| HFETGGIS | 0.447 ± 0.57 |
| HFIGVD | -0.156 ± 0.28 |
| HFMFVSNRVGWVGLLQNYSR | 6.657 ± 0.066 |
| HFRVYSWIQVK | 0.337 ± 0.49 |
| HFTYGSSFIL | 3.53 ± 0.069 |
| HFVFI | -1.05 ± 1.1 |
| HGDAKFGSVVGAFQDLYS | 1.29 ± 0.39 |
| HGHASFIRF | 2.13 ± 0.2 |
| HGNWGLLYLTDALVKMIQDV | -0.311 ± 0.3 |
| HGQARWGR | 1.47 ± 0.28 |
| HGTCISSGNKWARWTLS | 0.355 ± 0.65 |
| HGYSNNTSWAYI | 0.436 ± 0.65 |
| HHLKGPSQPSIVEIFE | -0.081 ± 0.31 |
| HHSELFIIITYFG | 0.206 ± 0.5 |
| HIDEYKWT | 0.546 ± 0.8 |
| HIDNVGVLR | 1.18 ± 0.28 |
| HIFHCLSMGILGCSMFLCLD | 0.952 ± 0.24 |
| HIGCIRWFSCGGSPLSMNRL | 1.24 ± 0.2 |
| HIIISKYHINYCRMMNYSGK | 8.137 ± 0.056 |
| HKCGTPFAIHIYRSKQLPGV | -0.305 ± 1 |
| HKGCGNSCIWHYFGNFWRFR | -0.658 ± 0.56 |
| HKGFEPVGRGYALCSTWLVV | 6.37 ± 0.074 |
| HKGWIKLLLPAHQLITLPPN | 0.174 ± 1 |
| HKWCKYNDLFVIHMSGFGRG | 5.44 ± 0.087 |
| HKWWSAPGSLAS | -0.038 ± 0.79 |

| Substance | amyloid nucleation score |
| --- | --- |
| HLASFFSSVSYSSDLAYSGT | -1.02 ± 0.78 |
| HLFVASYDKRVECFLSVKGE | inactive |
| HLMCESGRVFWKD | 0.015 ± 0.31 |
| HLRIGLIN | -0.467 ± 0.43 |
| HLSGYKLLIKSVYFE | 3.63 ± 0.067 |
| HLTAYCMSTHRQACDVDFDF | -0.067 ± 1.1 |
| HLWFLCRSYGGVLKFHTESV | 1.03 ± 0.43 |
| HLWSLRGPIAFIENRLSVWI | 0.605 ± 0.51 |
| HLYRSCVNKLL | -0.833 ± 1.1 |
| HMMFKSPYRCLLLNLTGYVL | 0.934 ± 0.25 |
| HMQPYIRESISVG | inactive |
| HMSVGNFLIPLCITMLRGIG | -0.347 ± 1.1 |
| HNLCGYLLVSVAWVLWWIRR | 2.61 ± 0.11 |
| HNSNYHIYGWVMVRRRIGYI | inactive |
| HNTKSYLWV | inactive |
| HNWLSMVQYH | -0.344 ± 0.76 |
| HPFVSDCVMDLKFTVVTGLV | 0.086 ± 0.3 |
| HPYYDQ | 0.538 ± 0.45 |
| HRDHGTISLHRKCSYVALAS | 1.14 ± 0.29 |
| HRMAPMGVISGNVLLPLSVW | inactive |
| HRNQTASKGCSCLLDCHDTG | 0.356 ± 0.23 |
| HRTLFKGPSWLPKRRERAIL | -0.097 ± 0.79 |
| HRVFNEGASMGTCCSILLEM | 6.047 ± 0.042 |
| HRYSRLRRVHYSYRSKGLNH | inactive |
| HSFVNNEKASQMSSCETGGS | -0.509 ± 0.41 |

| Substance | amyloid nucleation score |
| --- | --- |
| HSLMQLYLVIFLAHFQSYGL | 0.604 ± 0.44 |
| HSMAWNVG | inactive |
| HSNGKMNTTIHVVSELTVMR | 4.31 ± 0.058 |
| HSNLVT | 0.234 ± 0.41 |
| HSPNCYKMSGRFLCD | -1.77 ± 0.54 |
| HSRHHWYPSWQFWMLRPQNC | 1.4 ± 0.43 |
| HSSGCYF | 0.081 ± 1.1 |
| HSTVSLQSGRMNVVASGVIH | 1.62 ± 0.11 |
| HTGLFWS | inactive |
| HTSVLNMTGSGLIPN | -1.82 ± 0.78 |
| HTTDFIVLMVRSDASIRLWS | 4.1 ± 0.077 |
| HVEHGNCFQ | inactive |
| HVTWKNMIIDYLVP | 0.615 ± 0.6 |
| HVVVDSSVVAGCFTVFCRGI | 8.265 ± 0.046 |
| HWMVGKV | 0.164 ± 0.28 |
| HWVCKIILRGHSSMYCSDGC | 3.35 ± 0.11 |
| HWWLVIAMNRLGCFGEFMMR | -0.547 ± 0.63 |
| HWYVVDLVRVNYRALNSKWW | 0.194 ± 0.56 |
| HYMRFYCCSYNANKTVSYVP | 8.72 ± 0.028 |
| HYSGGCSLPSVKERVGTSIG | -0.604 ± 0.76 |
| HYVIVNIICCSDVGVLSRDR | 9.454 ± 0.069 |
| IALQDSDFSLLWFMHVCWDE | -0.463 ± 0.74 |
| IANKCVS | -1.12 ± 0.55 |
| IANRGNAKHVRWICMMHHRS | 0.479 ± 0.41 |
| IANWSKYSASTCLVMTHAMA | -0.302 ± 0.28 |

| Substance | amyloid nucleation score |
| --- | --- |
| IARDYVQ | -0.918 ± 0.54 |
| IASRLTPHSLYFLINVGRGR | 2.88 ± 0.14 |
| IATYIR | -0.179 ± 0.63 |
| IAVERS | -0.464 ± 1.1 |
| ICCRRSMPMIINDLNFMSNS | 7.928 ± 0.035 |
| ICETGMGSKVGHEPVTAQ | 0.598 ± 0.57 |
| ICFTCQYFNKYPGRS | 4.31 ± 0.09 |
| ICGCCARIHNYNISVSACLT | 4.3 ± 0.052 |
| ICGGTSESGRYRKAGQGV | 1.07 ± 0.15 |
| ICIDRNRI | 0.396 ± 0.34 |
| ICKGVRKIWSFGDMSWCRES | inactive |
| ICKRVVVLWHSKEPDALFVG | inactive |
| ICPFKSWFFYSLPYAFVRFT | inactive |
| ICQWRSWLKSTVIFCTRYDF | 3.37 ± 0.13 |
| ICWHV | -0.277 ± 1.1 |
| ICWRHTGIICKAGSNRSH | inactive |
| IDFRISLCVRFFGCFLLDYY | -0.618 ± 0.76 |
| IDSDSFHDRSTSRHLFNGLA | inactive |
| IDSILICIMHDCIYIEYLRN | 4.44 ± 0.094 |
| IDVGYIYGMVCWQTG | 4.08 ± 0.083 |
| IDVSKCVLGKDSSLRGTNTR | -0.595 ± 0.28 |
| IDYHD | -1.45 ± 0.78 |
| IEFWDYKYVLVSSFVFKHDV | -0.069 ± 0.65 |
| IEGDLFVRLRLRKLSQLFKA | 0.196 ± 0.77 |
| IESPLIEFTIDCW | -0.025 ± 0.79 |

| Substance | amyloid nucleation score |
| --- | --- |
| IESSGWAGRGTYSTYLASNV | 1.2 ± 0.66 |
| IFAGIHWNGQSAFLVFKCHI | inactive |
| IFASRSGFLSIRQLSHPARR | 3.35 ± 0.078 |
| IFCYPQCVGPRSLCVGGNME | -0.72 ± 0.39 |
| IFFLSNLKRKPDDRGLVHKN | 2.57 ± 0.14 |
| IFGFGL | 2.85 ± 0.2 |
| IFIRLFVLANYCINLFSS | 3.28 ± 0.082 |
| IFLQNTSSEWLLSARDRLRY | 0.157 ± 1 |
| IFNRSASYLAFFHKG | 4.3 ± 0.079 |
| IFPGILH | -1.83 ± 0.63 |
| IFRFARSNTYFRGESME | 4.08 ± 0.095 |
| IFYHHLSWTEFRCGRTFLSV | 0.196 ± 0.42 |
| IGIDLVRSGSVIFPSPTWKV | 4.411 ± 0.037 |
| IGINLCCGDYFIHVLSASCS | 5.2 ± 0.058 |
| IGKRASSPYYRPSIVVYSWD | -0.302 ± 0.32 |
| IGLNTYTMF | 0.282 ± 0.49 |
| IGQRLCYCVCWRSSCGVVWQ | 1.46 ± 0.36 |
| IHLIREVAQRFTSCA | 0.7 ± 0.28 |
| IHPRSFRNVCLSSHSEMGG | -0.813 ± 0.76 |
| IIALLYIKMTSTLVTVRKSL | 0.297 ± 0.5 |
| IIFVVVASQKVHWFVRVDGD | -0.658 ± 1 |
| IIGINVWM | 5.443 ± 0.05 |
| IIHAFHMSGPLLRAQVS | -0.308 ± 0.38 |
| IIMPF | -0.682 ± 0.64 |
| IIRRF | 0.28 ± 0.33 |

| Substance | amyloid nucleation score |
| --- | --- |
| IISGAFRCARNGY | 1.62 ± 0.3 |
| IITLSYGGCSVGPCGQ | 7.371 ± 0.057 |
| IIVSDSPTLQRS | 0.163 ± 0.63 |
| IKHKLWRAYYCSESTLSVLS | -1.03 ± 0.28 |
| IKILLCRSGARIGVSCDMSC | 0.706 ± 0.74 |
| IKKGRWAYGPSLVCKNAMRE | 0.799 ± 0.74 |
| IKSIT | -0.388 ± 1 |
| IKVAEGSLVCARYGRMVRLE | 4.92 ± 0.053 |
| IKWRSFPDSYLENFEFI | -1.6 ± 1.1 |
| IKYLKCIVMCRFFVHWSSIV | -1.06 ± 0.76 |
| ILAVRQV | 0.054 ± 0.79 |
| ILAYPFRCIETNSLLKMSPL | 0.402 ± 0.8 |
| ILEACREAARPAITFSFFTK | -1.04 ± 1.1 |
| ILFGFSLPGSCDNWDRDAKG | -1.15 ± 0.78 |
| ILFGIPN | -0.314 ± 0.24 |
| ILFIIWGHLRYVRIVSYVGY | -1.48 ± 0.62 |
| ILGDNRLKPVTLSRNVALYY | -1.18 ± 0.78 |
| ILGQAGMILFNKLAPRGALR | inactive |
| ILGVLGFGGSRDRLSTRWGS | 1.66 ± 0.16 |
| ILKGNNSS | -1.2 ± 0.62 |
| ILLFQSAYHKSIEIWGNESF | 4.21 ± 0.043 |
| ILLNEVFDRTWSELPGCNCT | 0.043 ± 0.21 |
| ILLTFVPAEKSWTSAIL | 0.058 ± 0.55 |
